Data taken from patent publication US20110053139A1.
Like-named read-outs stand apart in the source and are kept apart here.

Columns and labels:
[1] = biological target: Coxsackie virus B4 (JVB strain) viral particles (Coxsackie virus B4 (JVB strain)) (UniProt P08292)
[2] = biological target: Herpes Simplex virus type 1 (HSV-1), purified virus; assay: SH-SAW biosensor (325 MHz), 204-4 mAb; HSV-1 alone at 3.6×10^6/µl
[3] = biological target: Coxsackie virus B4 (JVB strain) viral particles (Coxsackie virus B4 (JVB strain)) (UniProt P08292); assay: SH-SAW biosensor (325 MHz), 204-4 mAb; Coxsackie B4 admixed with HSV-1 at equal concentration, low end of range
[4] = biological target: Coxsackie virus B4 (JVB strain) viral particles (Coxsackie virus B4 (JVB strain)) (UniProt P08292); assay: SH-SAW biosensor (325 MHz), 204-4 mAb; Coxsackie B4 admixed with HSV-1 at equal concentration, high end of range

UniProt P08292, sequence (P08292 2-849): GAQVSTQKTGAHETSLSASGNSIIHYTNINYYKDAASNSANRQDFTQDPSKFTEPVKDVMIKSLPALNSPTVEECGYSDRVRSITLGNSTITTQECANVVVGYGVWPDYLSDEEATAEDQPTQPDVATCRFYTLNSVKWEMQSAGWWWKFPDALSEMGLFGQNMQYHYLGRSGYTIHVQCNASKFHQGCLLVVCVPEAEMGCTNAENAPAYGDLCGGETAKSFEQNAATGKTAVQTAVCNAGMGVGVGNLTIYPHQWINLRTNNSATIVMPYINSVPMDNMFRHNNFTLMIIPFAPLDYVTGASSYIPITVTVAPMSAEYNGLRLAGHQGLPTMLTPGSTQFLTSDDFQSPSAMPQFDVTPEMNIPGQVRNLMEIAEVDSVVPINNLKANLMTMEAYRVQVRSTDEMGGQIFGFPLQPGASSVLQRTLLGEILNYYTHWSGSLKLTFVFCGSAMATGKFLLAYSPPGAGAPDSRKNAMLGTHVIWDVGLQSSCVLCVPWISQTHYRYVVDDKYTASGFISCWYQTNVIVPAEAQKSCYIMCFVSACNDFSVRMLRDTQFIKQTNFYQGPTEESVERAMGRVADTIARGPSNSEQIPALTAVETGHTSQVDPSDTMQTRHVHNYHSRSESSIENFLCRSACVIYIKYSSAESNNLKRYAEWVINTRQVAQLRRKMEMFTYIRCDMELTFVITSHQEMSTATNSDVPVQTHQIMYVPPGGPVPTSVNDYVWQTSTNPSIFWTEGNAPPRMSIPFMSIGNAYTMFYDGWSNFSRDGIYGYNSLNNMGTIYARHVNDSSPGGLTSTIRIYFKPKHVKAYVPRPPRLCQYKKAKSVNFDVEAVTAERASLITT

## IgG2a isotype monoclonal antibody (mAb) directed against the JVB strain of Coxsackie virus B4, produ
[1]
  phase differential mass shift Δφ: 0.95 to 6.99 degrees
[2]
  phase differential mass shift Δφ: 0.64 degrees
[3]
  phase differential mass shift Δφ: 1.09 degrees
[4]
  phase differential mass shift Δφ: 7.24 degrees
